Results reported in patent US20160130351A1 (NOVIMMUNE S A, published 2016).
Substitutions are numbered along the chain they refer to.

T1: soluble cynomolgus monkey IL-6R (cynomolgus monkey, UniProt A0A2K5WN54 60-396)
T1 construct: extracellular domain; also called scyIL-6R; soluble cynomolgus monkey IL-6 Receptor; not shown: C-terminal His- or Avi-Tag
T1 sequence: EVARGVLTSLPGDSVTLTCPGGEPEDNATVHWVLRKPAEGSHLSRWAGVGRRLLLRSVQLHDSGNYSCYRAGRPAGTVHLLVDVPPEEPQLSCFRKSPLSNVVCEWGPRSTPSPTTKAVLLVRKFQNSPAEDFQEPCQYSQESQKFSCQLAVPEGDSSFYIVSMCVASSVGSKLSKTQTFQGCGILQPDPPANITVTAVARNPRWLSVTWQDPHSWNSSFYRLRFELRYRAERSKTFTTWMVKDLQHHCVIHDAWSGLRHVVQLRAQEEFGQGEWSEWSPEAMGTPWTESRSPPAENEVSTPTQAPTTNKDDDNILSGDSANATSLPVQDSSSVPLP

T2: carrier-free soluble human IL-6R (R&D) (human, UniProt P08887 20-365)
T2 construct: extracellular domain; also called shuIL-6R; shuIL6-R
T2 sequence (looked up): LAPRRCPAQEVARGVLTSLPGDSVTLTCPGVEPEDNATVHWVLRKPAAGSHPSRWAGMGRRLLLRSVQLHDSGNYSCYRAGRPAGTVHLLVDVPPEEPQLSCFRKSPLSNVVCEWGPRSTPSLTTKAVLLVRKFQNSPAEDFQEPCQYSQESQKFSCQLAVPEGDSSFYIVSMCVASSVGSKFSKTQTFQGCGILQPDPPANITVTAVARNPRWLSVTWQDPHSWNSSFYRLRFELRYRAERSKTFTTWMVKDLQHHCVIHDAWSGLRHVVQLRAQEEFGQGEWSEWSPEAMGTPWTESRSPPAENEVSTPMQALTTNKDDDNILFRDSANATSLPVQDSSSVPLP

B1: NI-1201-A antibody (antibody, V domains shown)
VH: QVQLVQSGAEVKKPGSSVKVSCKASGGTFSSYAISWVRQAPGQGLEWMGGIIPLFDTTKYAQKFQGRVTITADESTSTAYMELSSLRSEDTAVYYCARDRDILTDYYPMGGMDVWGQGTTVTVSS
VL: AIQLTQSPSSLSASVGDRVTITCRASQGISSVLAWYQQKPGKAPKLLIYDASSLESGVPSRFSGSGSGTDFTLTISSLQPEDFATYYCQQSNSYPLTFGGGTKVEIKR
B2: NI-1201-B antibody (antibody, V domains shown)
VH: B1 VH with M109L
VL: B1 VL
B3: NI-1201-C antibody (antibody, V domains shown)
VH: B1 VH with L54A, D56E, M109L
VL: B1 VL
B4: NI-1201-D antibody (antibody, V domains shown)
VH: B1 VH with L54A, D56E, M109L
VL: B1 VL with N92Q

The binders below were run against T1, soluble cynomolgus monkey IL-6R (assay: SPR (Biacore 2000), mAb captured on anti-human IgG Fc, analyte in solution, 25 C, 1:1 Langmuir).
Description: (§1) A CM5 Biacore chip was used and 1640 RU (response units) of an anti-human IgG Fc (Biacore AB, Uppsala, Sweden) was immobilized by EDC/NHS chemistry. […] The surface was regenerated after each cycle by injection of 3M magnesium chloride at 20 μL/min, for 30 s followed by lmin of stabilization time in HBS-EP buffer (Biacore AB, Uppsala, Sweden). Binding was measured by passing analytes carrier-free soluble human IL-6R (shuIL6-R; R&D), soluble human IL-6Rc (shuIL-6Rc) and soluble cynomolgus monkey IL-6R (scyIL-6R) in duplicates at the following concentrations: 100 nM, 50 nM, 25 nM, 12.5 nM, 6.25 nM and 0nM. All solutions were diluted in HBS-EP buffer. Injection was performed at 50 μl/min for 3 min followed by 12 min of dissociation time and the temperature was set at 25° C.
B1 gave a Kd of 2.05 nM, a koff of 0.000213 s⁻¹ and a kon of 104000 M⁻¹ s⁻¹.
For B2, the Kd was 1.81 nM, the koff was 0.000207 s⁻¹ and the kon was 115000 M⁻¹ s⁻¹.
For B3, the Kd was 2.03 nM, the koff was 0.000225 s⁻¹ and the kon was 111000 M⁻¹ s⁻¹.
B4 showed a Kd of 1.79 nM, a koff of 0.0002 s⁻¹ and a kon of 112000 M⁻¹ s⁻¹.

What follows are binders tested against T2, carrier-free soluble human IL-6R (R&D) in the same assay as above.
Description: as §1
For B1, the Kd was 0.121 nM, the koff was 0.00011 s⁻¹ and the kon was 829000 M⁻¹ s⁻¹.
In the case of B2, the Kd is reported as 0.107 nM, the koff is reported as 9.4e-05 s⁻¹ and the kon is reported as 875000 M⁻¹ s⁻¹.
B3 was tested, and the Kd was 0.11 nM, the koff was 0.00011 s⁻¹ and the kon was 992000 M⁻¹ s⁻¹.
B4 gave a Kd of 0.134 nM, a koff of 0.000102 s⁻¹ and a kon of 761000 M⁻¹ s⁻¹.

Each binder was assayed against soluble human IL-6Rc (shuIL-6Rc) recombinant fusion protein of IL-6R and IL-6 (human) (UniProt P08887) in the same assay as above.
B1 gave a Kd of 4.92 nM, a koff of 0.000246 s⁻¹ and a kon of 50100 M⁻¹ s⁻¹.
For B2, the Kd was 4.43 nM, the koff was 0.000237 s⁻¹ and the kon was 53400 M⁻¹ s⁻¹.
Binder B3 has a Kd of 5.03 nM, a koff of 0.00024 s⁻¹ and a kon of 47700 M⁻¹ s⁻¹.
B4 was tested, and the Kd was 4.89 nM, the koff was 0.000222 s⁻¹ and the kon was 45300 M⁻¹ s⁻¹.
